Source: US9725518B2, “Antibodies that bind to Jagged 1” (Cancer Research Technology Limited, priority 2013, dated 2017)

What was measured:
[1] = tested on: J1-induced Notch signalling; assay: Luciferase assay, LS174T RBPJ reporter stimulated with J1 protein; format: cell-based, human
Description: FIG. 9. […] (A) The colorectal cancer cell line LS174T expressing luciferase under the control of Notch co-factor RBPJ was stimulated with mammalian cell-expressed soluble J1 proteins (NE3-Fc and NE12-Fc) or a control protein in the presence of J1 mAbs (10 μg/ml), and luciferase activity was measured. […] (C) Breast cancer MDA-MB-231 cells were cultured with J1 mAbs. The expression level of the Notch target gene HES1 was measured by qPCR using β2m as the control gene. In all experiments the γ-secretase inhibitor DBZ was used as a positive control for pan Notch inhibition and a control mAb (IgG2b or IgG1) or no treatment (NT) were negative controls.
FIG. 20. Inhibition of human Jagged 1/Notch signalling by humanised and de-immunised J1-mAbs in vitro. The colorectal cancer cell line LS174T expressing luciferase under the control of Notch co-factor RbPJ was stimulated with mammalian cell-expressed recombinant J1 protein (NE3-Fc protein, right bar for each treatment) or a control protein (left bar) in the presence of J1 mAbs (10 μg/ml), and luciferase activity was measured. The parental murine monoclonal antibody (Mo), Murine IgG1, DMSO and DBZ were used as controls.
Having established that the J1 mAbs were able to block the binding of the J1 ligand to its receptor N1 their effect on the activity of the Notch signalling pathway was investigated. The human colorectal cancer cell line LS174T, stably expressing a luciferase reporter gene under control of Notch co-factor RBPJ, was stimulated with two forms of immobilised J1 protein: N-terminus to EGF3 and N-terminus to EGF12. […] Importantly, the best two J1 mAbs (J1-65D and J1-183D) were also tested against other Notch ligands in order to verify ligand specificity.
Prior to experiment, clear bottom 96-well plates (CELLSTAR) wells were coated with either J1-ECD fragments (NE3-Fc and NE12-Fc), other Notch-ligands (J2 or DLL4; both from R&D) or control protein (mlgG2b) at the concentration of 5 μg/ml in 0.1% BSA-PBS (overnight incubation at 4° C.). LS174T colorectal cancer cells, expressing the luciferase gene under control of the Notch cofactor RbPJ, were then plated (4×10^4 cells/well) in the presence of different mAbs (10 μg/ml) or DBZ (100 nM). Luciferase activity was then quantified 24 hours later using the Bright-Glo Luciferase Assay System (Promega).

[2] = tested on: murine Hes1 (N1 signalling mediated via mJ1); assay: Hes1 qPCR in B16F10 cells stably expressing murine J1; format: cell-based, mouse; settings: mAb 10 μg/ml, DBZ 100 nM, 7 days
Description: FIG. 10. […] (A) Mouse melanoma B16F10 cells stably expressing murine J1 were cultured with 10 μg/ml of each J1 mAb, or an IgG1 control antibody, for 7 days with fresh mAb supplemented every 2 days. The γ-secretase inhibitor DBZ (100 nM) was used as a control for Notch inhibition. Cells were harvested, total RNA extracted and cDNA was synthesised. Murine Hes1 expression levels were detected by real-time PCR normalised against GAPDH. […] (B) Human breast cancer (MDA-MB-231) and primary endothelial cells (HUVEC) were cultured over plates coated with recombinant rat Jagged1 (rrJag1-Fc) or a control protein (mIgG1) in the presence of 10 μg/ml of J1 mAbs or isotype control Ab. 24 hours later cells were harvested, total RNA extracted and cDNA was synthesised. Expression of the human Notch-target genes HES1 and HEY2 was analysed by real-time PCR and β2-microglobulin was used as control gene. Results from one representative experiment are shown. […]
Total RNA from cell cultures/spheroids was isolated using RNeasy mini kit (Qiagen, UK) according to the manufacturer's instructions. […] Quantitative PCR (qPCR) analysis was performed in triplicate using the SYBR GreenER qPCR SuperMix Universal (Invitrogen) and Chromo4 fluorescence detector (MJ Research, USA). Relative quantification was done using the ΔΔCt method normalizing to β2-microglobulin gene or murine β-Actin expression. […]

[3] = target: T1, N1 binding to cell surface expressed hJ1 (Homo sapiens, UniProt P78504); assay: Notch binding blocking assay (FACS): N1 EGF11-13 beads staining human J1-expressing cells; parameters: key: +: Complete blocking; X: No blocking
T1 construct: cell expressed full length human J1 (hJ1; HEK293 transfectants); expressed in transfected cells; host or cells: HEK293
T1 sequence (P78504 34-1218): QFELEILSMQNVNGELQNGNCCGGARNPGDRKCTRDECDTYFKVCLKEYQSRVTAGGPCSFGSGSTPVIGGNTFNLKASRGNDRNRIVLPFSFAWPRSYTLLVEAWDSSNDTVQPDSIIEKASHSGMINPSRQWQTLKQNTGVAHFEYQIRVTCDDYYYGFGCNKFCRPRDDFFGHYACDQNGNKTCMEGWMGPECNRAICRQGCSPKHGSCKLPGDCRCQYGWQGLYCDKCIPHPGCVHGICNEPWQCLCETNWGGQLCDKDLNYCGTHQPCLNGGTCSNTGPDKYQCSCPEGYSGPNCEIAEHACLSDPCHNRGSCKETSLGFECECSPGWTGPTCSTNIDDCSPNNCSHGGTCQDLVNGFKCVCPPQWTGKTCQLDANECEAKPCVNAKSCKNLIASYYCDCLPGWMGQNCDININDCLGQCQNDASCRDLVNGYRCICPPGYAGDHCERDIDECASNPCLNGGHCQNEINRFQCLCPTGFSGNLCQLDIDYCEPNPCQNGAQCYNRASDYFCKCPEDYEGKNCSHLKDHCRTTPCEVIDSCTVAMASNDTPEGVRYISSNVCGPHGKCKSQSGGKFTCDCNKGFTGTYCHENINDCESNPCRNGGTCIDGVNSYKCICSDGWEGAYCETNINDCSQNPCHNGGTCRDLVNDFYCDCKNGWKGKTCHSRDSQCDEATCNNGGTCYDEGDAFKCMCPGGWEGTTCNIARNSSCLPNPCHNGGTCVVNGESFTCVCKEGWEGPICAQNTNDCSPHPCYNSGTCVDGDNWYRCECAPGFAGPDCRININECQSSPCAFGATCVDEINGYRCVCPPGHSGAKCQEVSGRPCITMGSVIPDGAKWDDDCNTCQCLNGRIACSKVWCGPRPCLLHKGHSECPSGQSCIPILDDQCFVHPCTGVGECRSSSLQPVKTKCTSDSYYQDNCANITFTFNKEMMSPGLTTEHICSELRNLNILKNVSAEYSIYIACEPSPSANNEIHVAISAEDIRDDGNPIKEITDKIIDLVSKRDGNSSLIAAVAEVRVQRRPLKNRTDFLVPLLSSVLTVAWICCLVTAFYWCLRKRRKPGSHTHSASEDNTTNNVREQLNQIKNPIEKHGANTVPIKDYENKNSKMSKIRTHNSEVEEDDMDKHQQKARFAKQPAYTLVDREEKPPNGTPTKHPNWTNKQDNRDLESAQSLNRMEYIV
Summary of the method: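 E. coli-expressed, refolded human N1 EGF11-13 (411-526), biotinylated on avidin-coated fluorescent beads, stained human J1-transfected HEK293 cells with hybridoma supernatant or purified antibody diluted in HBSS/10% FCS. Purified mAbs titrated in dilution series; bead binding read by flow cytometry.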

MDA-MB-231 spheroids = assay: Spheroid assay (3-D growth), MDA-MB-231; format: cell-based, human; settings: humanised variants 5 μg/ml
Excerpt: Similar findings were also reported for the Merck anti-N1 mAbs when tested on the LS-1034 cell line. As cell-cell contact is required to activate Notch signalling a spheroid-based 3-D growth model was used to test the ability of the J1 mAbs to block tumour growth. Furthermore, the 3-D model better mimics in vivo conditions including hypoxia and acidosis, allowing evaluation of the mAbs effect in a more realistic setting. Spheroids were generated from MDA-MB-231 breast cancer cells and the ability of different concentrations of the J1-65D mAb to inhibit their growth was evaluated.
Cells were harvested and resuspended in 2.5% Matrigel (BD)-complete DMEM medium. Cell suspension was plated on low-adherence 96-well plates (Corning) (200 μl/well) and spheroids, of approximately fixed cell number (5×10^3 cells for MDA-MB-231 and MDA-MB-468 cell lines; 2×10^3 for MCF7 cells) were then generated by spinning plates at 1800 rpm for 10 minutes. The following day, pictures of the spheroids were taken (day 1) and treatments were added (mAbs were used at 10 μg/ml [5 μg/ml for humanised antibodies] while DBZ was used at the concentration of 100 nM). In some experiments Paclitaxel (1 nM) and Doxorubicin (20 nM) were used in combination with J1-65D mAb treatment. Every 2 days pictures were taken and half of the medium was replaced with fresh one containing mAb/drug. At the end of the experiment, spheroids were either lysed for RNA extraction, were processed and paraffin-embedded for immunohistochemical analysis or were dissociated by pipetting and trypsinization into single cell suspensions for FACS analysis. Spheroid size was evaluated by image analysis using ImageJ software.

[4] = Soluble aggregates of transiently expressed antibodies; format: physicochemical; settings: Protein A purified antibody
Excerpt: The protein yield of these antibodies, their levels of soluble aggregates and their binding affinity to the immunogen (J1-DE3) are illustrated in (Table 6).

[5] = humanised/chimeric mAbs 10 μg/ml, NE3-Fc, DBZ control

inhibition of J1-induced luciferase activity ([1]; NE3-Fc and NE12-Fc, mAbs 10 μg/ml, DBZ 100 nM)	Blocking of Notch1 binding to cell surface Jagged 1 ([3]; final antibody concentration 0.2 μg/ml)	Blocking of Notch1 binding to cell surface Jagged 1 ([3]; final antibody concentration 0.4 μg/ml)	Blocking of Notch1 binding to cell surface Jagged 1 ([3]; final antibody concentration 0.6 μg/ml)	Blocking of Notch1 binding to cell surface Jagged 1 ([3]; final antibody concentration 1.0 μg/ml)	Molecule	inhibition of J1-induced luciferase activity [1, 5]	repression of murine Hes1 expression [2]	spheroid growth inhibition (MDA-MB-231 spheroids)	% soluble aggregate [4] [%]
blocked					C[C@H](NC(=O)Cc1cc(F)cc(F)c1)C(=O)N[C@@H]1C(=O)N(C)c2ccccc2-c2ccccc21 [DBZ, reference compound]	blocked	Repression of Hes1 expression was observed		
	X	+ (Complete blocking)	+ (Complete blocking)	+ (Complete blocking)	J1-183D variant 9: humanised/de-immunised J1-183D: J1-183D_VL_3 + J1-183D_VH_1 (antibody, V domains shown) VH: QVQLVQSGAELKKPGASVKVSCKVSGYAFTDYAIHWIRQAPGQGLEWMGIINTYYGDSKYNQKFKDRVTMTVDKSTSTAYMELSSLRSEDTAVYYCARGYDGFAYWGQGTLVTVSSASTKGP VL: DIQMTQSPSSLSASVGDRVTITCRTSENIYSYLTWYQQKPGKAPKLLIYNAKILDSGVPSRFSGSGSGTDFTLTISSLQPEDFATYYCQHHYDIPWTFGGGTKLEIKRT	inhibited as effectively as by the parental murine mAb		increasingly less effect	3.49
